This experiment addresses Mycobacterium tuberculosis dUTPase lacking the mycobacteria-specific loop A133-S137 (MtDUT^Δloop) (Mycobacterium tuberculosis) (UniProt P9WNS5). Put plainly: crystal structure.

The results in this text go back to PMC11544220.

On to “Mycobacterium tuberculosis dUTPase lacking the mycobacteria-specific loop A133-S137 (MtDUT^Δloop) (from UniProt P9WNS5 1-154) (enzyme)”, for which the stoichiometry N (subunits in the oligomer) stood at 3.
